Experimental findings from US20260242419A1, “A CYCLIC PEPTIDE FOR TRAPPING INTERLEUKIN-1 BETA” (Merck Sharp & Dohme LLC, priority 2023, published 2026) are described below.

Starred links: 1 amine or outer side, 2 acyl side, 3 side chain; linkers in the order of their positions; H or OH if unused. Non-standard residues stand in square brackets, D forms with d. TyrEtNAc = (2S)-3-[4-(2-acetamidoethoxy)phenyl]-2-amino-propanoic acid, CC(=O)NCCOc1ccc(C[C@H](N[*:1])C(=O)[*:2])cc1; 3PyridaAla = (2S)-2-amino-3-pyridazin-3-yl-propanoic acid, O=C([C@H](Cc1cccnn1)N[*:1])[*:2]; Phe(4-(cis-4-COOH-cHex)) = N[C@@H](Cc1ccc([C@H]2CC[C@@H](C(=O)O)CC2)cc1)C(=O)O; dPro(4R-(4-pyridylmethyl)) = O=C(O)[C@H]1C[C@@H](Cc2ccncc2)CN1; Trp(βS-Me,4-F) = C[C@@H](c1c[nH]c2cccc(F)c12)[C@H](N)C(=O)O; Bip(4'-COOH) = N[C@@H](Cc1ccc(-c2ccc(C(=O)O)cc2)cc1)C(=O)O; Ala(1-bicyclo(1.1.1)pentyl) = N[C@@H](CC12CC(C1)C2)C(=O)O; dPro(4R-Bzl(4-F)) = O=C(O)[C@H]1C[C@@H](Cc2ccc(F)cc2)CN1; Ala(pyrimidin-5-yl) = N[C@@H](Cc1cncnc1)C(=O)O; Phe(4-COOH) = N[C@@H](Cc1ccc(C(=O)O)cc1)C(=O)O; Pro(cis-4-F) = O=C(O)[C@@H]1C[C@H](F)CN1; 4Pal = N[C@@H](Cc1ccncc1)C(=O)O; d(αMeS) = C[C@@](N)(CO)C(=O)O; αMeK = C[C@](N)(CCCCN)C(=O)O; αMeS = C[C@](N)(CO)C(=O)O; Orn = NCCC[C@H](N)C(=O)O; Api = NC1(C(=O)O)CCNCC1; Dab = NCC[C@H](N)C(=O)O; Dap = NC[C@H](N)C(=O)O; Aib = CC(C)(N)C(=O)O

The chains are these.
B1: SEQ ID NO: 110 (peptide)
peptide: cyclo([Bip(4'-COOH)][Ala(1-bicyclo(1.1.1)pentyl)][Phe(4-COOH)]G[Pro(cis-4-F)][Trp(βS-Me,4-F)][Aib]SW[Aib][Orn]Q[Dab]G[dPro(4R-Bzl(4-F))])
SMILES: C[C@@H](c1c[nH]c2cccc(F)c12)[C@@H]1NC(=O)[C@@H]2C[C@H](F)CN2C(=O)CNC(=O)[C@H](Cc2ccc(C(=O)O)cc2)NC(=O)[C@H](CC23CC(C2)C3)NC(=O)[C@H](Cc2ccc(-c3ccc(C(=O)O)cc3)cc2)NC(=O)[C@H]2C[C@@H](Cc3ccc(F)cc3)CN2C(=O)CNC(=O)[C@H](CCN)NC(=O)[C@H](CCC(N)=O)NC(=O)[C@H](CCCN)NC(=O)C(C)(C)NC(=O)[C@H](Cc2c[nH]c3ccccc23)NC(=O)[C@H](CO)NC(=O)C(C)(C)NC1=O
B2: SEQ ID NO: 102 (peptide)
peptide: cyclo([Bip(4'-COOH)][4Pal][Phe(4-COOH)]G[Pro(cis-4-F)][Trp(βS-Me,4-F)][Aib]EW[Aib][3PyridaAla]Q[Dab]G[dPro(4R-Bzl(4-F))])
SMILES: C[C@@H](c1c[nH]c2cccc(F)c12)[C@@H]1NC(=O)[C@@H]2C[C@H](F)CN2C(=O)CNC(=O)[C@H](Cc2ccc(C(=O)O)cc2)NC(=O)[C@H](Cc2ccncc2)NC(=O)[C@H](Cc2ccc(-c3ccc(C(=O)O)cc3)cc2)NC(=O)[C@H]2C[C@@H](Cc3ccc(F)cc3)CN2C(=O)CNC(=O)[C@H](CCN)NC(=O)[C@H](CCC(N)=O)NC(=O)[C@H](Cc2cccnn2)NC(=O)C(C)(C)NC(=O)[C@H](Cc2c[nH]c3ccccc23)NC(=O)[C@H](CCC(=O)O)NC(=O)C(C)(C)NC1=O
B3: SEQ ID NO: 108 (peptide)
peptide: cyclo([Bip(4'-COOH)][4Pal][Phe(4-COOH)]G[Pro(cis-4-F)][Trp(βS-Me,4-F)][Aib]SW[Aib][Ala(pyrimidin-5-yl)]Q[Orn]G[dPro(4R-(4-pyridylmethyl))])
SMILES: C[C@@H](c1c[nH]c2cccc(F)c12)[C@@H]1NC(=O)[C@@H]2C[C@H](F)CN2C(=O)CNC(=O)[C@H](Cc2ccc(C(=O)O)cc2)NC(=O)[C@H](Cc2ccncc2)NC(=O)[C@H](Cc2ccc(-c3ccc(C(=O)O)cc3)cc2)NC(=O)[C@H]2C[C@@H](Cc3ccncc3)CN2C(=O)CNC(=O)[C@H](CCCN)NC(=O)[C@H](CCC(N)=O)NC(=O)[C@H](Cc2cncnc2)NC(=O)C(C)(C)NC(=O)[C@H](Cc2c[nH]c3ccccc23)NC(=O)[C@H](CO)NC(=O)C(C)(C)NC1=O
B4: SEQ ID NO: 109 (peptide)
peptide: cyclo([Bip(4'-COOH)][Ala(1-bicyclo(1.1.1)pentyl)][Phe(4-COOH)]G[Pro(cis-4-F)][Trp(βS-Me,4-F)][Aib]SW[Aib][Ala(pyrimidin-5-yl)]Q[Orn]G[dPro(4R-(4-pyridylmethyl))])
SMILES: C[C@@H](c1c[nH]c2cccc(F)c12)[C@@H]1NC(=O)[C@@H]2C[C@H](F)CN2C(=O)CNC(=O)[C@H](Cc2ccc(C(=O)O)cc2)NC(=O)[C@H](CC23CC(C2)C3)NC(=O)[C@H](Cc2ccc(-c3ccc(C(=O)O)cc3)cc2)NC(=O)[C@H]2C[C@@H](Cc3ccncc3)CN2C(=O)CNC(=O)[C@H](CCCN)NC(=O)[C@H](CCC(N)=O)NC(=O)[C@H](Cc2cncnc2)NC(=O)C(C)(C)NC(=O)[C@H](Cc2c[nH]c3ccccc23)NC(=O)[C@H](CO)NC(=O)C(C)(C)NC1=O
B5: SEQ ID NO: 107 (peptide)
peptide: cyclo([Phe(4-(cis-4-COOH-cHex))][Ala(1-bicyclo(1.1.1)pentyl)][Phe(4-COOH)]G[Pro(cis-4-F)][Trp(βS-Me,4-F)][αMeS]EW[Aib]SQ[Dab]G[dPro(4R-Bzl(4-F))])
SMILES: C[C@@H](c1c[nH]c2cccc(F)c12)[C@@H]1NC(=O)[C@@H]2C[C@H](F)CN2C(=O)CNC(=O)[C@H](Cc2ccc(C(=O)O)cc2)NC(=O)[C@H](CC23CC(C2)C3)NC(=O)[C@H](Cc2ccc([C@H]3CC[C@@H](C(=O)O)CC3)cc2)NC(=O)[C@H]2C[C@@H](Cc3ccc(F)cc3)CN2C(=O)CNC(=O)[C@H](CCN)NC(=O)[C@H](CCC(N)=O)NC(=O)[C@H](CO)NC(=O)C(C)(C)NC(=O)[C@H](Cc2c[nH]c3ccccc23)NC(=O)[C@H](CCC(=O)O)NC(=O)[C@](C)(CO)NC1=O
B6: SEQ ID NO: 104 (peptide)
peptide: cyclo([Phe(4-(cis-4-COOH-cHex))][Ala(1-bicyclo(1.1.1)pentyl)][Phe(4-COOH)]G[Pro(cis-4-F)][Trp(βS-Me,4-F)][αMeS]EW[αMeK][Ala(pyrimidin-5-yl)]Q[Dab]G[dPro(4R-Bzl(4-F))])
SMILES: C[C@@H](c1c[nH]c2cccc(F)c12)[C@@H]1NC(=O)[C@@H]2C[C@H](F)CN2C(=O)CNC(=O)[C@H](Cc2ccc(C(=O)O)cc2)NC(=O)[C@H](CC23CC(C2)C3)NC(=O)[C@H](Cc2ccc([C@H]3CC[C@@H](C(=O)O)CC3)cc2)NC(=O)[C@H]2C[C@@H](Cc3ccc(F)cc3)CN2C(=O)CNC(=O)[C@H](CCN)NC(=O)[C@H](CCC(N)=O)NC(=O)[C@H](Cc2cncnc2)NC(=O)[C@](C)(CCCCN)NC(=O)[C@H](Cc2c[nH]c3ccccc23)NC(=O)[C@H](CCC(=O)O)NC(=O)[C@](C)(CO)NC1=O
B7: SEQ ID NO: 103 (peptide)
peptide: cyclo([Phe(4-(cis-4-COOH-cHex))][Ala(1-bicyclo(1.1.1)pentyl)][Phe(4-COOH)]G[Pro(cis-4-F)][Trp(βS-Me,4-F)][αMeS]EW[Aib][Ala(pyrimidin-5-yl)]Q[Dab]G[dPro(4R-Bzl(4-F))])
SMILES: C[C@@H](c1c[nH]c2cccc(F)c12)[C@@H]1NC(=O)[C@@H]2C[C@H](F)CN2C(=O)CNC(=O)[C@H](Cc2ccc(C(=O)O)cc2)NC(=O)[C@H](CC23CC(C2)C3)NC(=O)[C@H](Cc2ccc([C@H]3CC[C@@H](C(=O)O)CC3)cc2)NC(=O)[C@H]2C[C@@H](Cc3ccc(F)cc3)CN2C(=O)CNC(=O)[C@H](CCN)NC(=O)[C@H](CCC(N)=O)NC(=O)[C@H](Cc2cncnc2)NC(=O)C(C)(C)NC(=O)[C@H](Cc2c[nH]c3ccccc23)NC(=O)[C@H](CCC(=O)O)NC(=O)[C@](C)(CO)NC1=O
B8: SEQ ID NO: 111 (peptide)
peptide: cyclo([Bip(4'-COOH)][4Pal][Phe(4-COOH)]G[Pro(cis-4-F)][Trp(βS-Me,4-F)][Aib]SW[d(αMeS)][Ala(pyrimidin-5-yl)]Q[Dab]G[dPro(4R-(4-pyridylmethyl))])
SMILES: C[C@@H](c1c[nH]c2cccc(F)c12)[C@@H]1NC(=O)[C@@H]2C[C@H](F)CN2C(=O)CNC(=O)[C@H](Cc2ccc(C(=O)O)cc2)NC(=O)[C@H](Cc2ccncc2)NC(=O)[C@H](Cc2ccc(-c3ccc(C(=O)O)cc3)cc2)NC(=O)[C@H]2C[C@@H](Cc3ccncc3)CN2C(=O)CNC(=O)[C@H](CCN)NC(=O)[C@H](CCC(N)=O)NC(=O)[C@H](Cc2cncnc2)NC(=O)[C@@](C)(CO)NC(=O)[C@H](Cc2c[nH]c3ccccc23)NC(=O)[C@H](CO)NC(=O)C(C)(C)NC1=O
B9: SEQ ID NO: 11 (peptide)
peptide: cyclo([TyrEtNAc][4Pal][Phe(4-COOH)]G[Pro(cis-4-F)][Trp(βS-Me,4-F)][Aib]EW[Aib][Ala(pyrimidin-5-yl)]Q[Dap]G[dPro(4R-Bzl(4-F))])
SMILES: CC(=O)NCCOc1ccc(C[C@@H]2NC(=O)[C@H]3C[C@@H](Cc4ccc(F)cc4)CN3C(=O)CNC(=O)[C@H](CN)NC(=O)[C@H](CCC(N)=O)NC(=O)[C@H](Cc3cncnc3)NC(=O)C(C)(C)NC(=O)[C@H](Cc3c[nH]c4ccccc34)NC(=O)[C@H](CCC(=O)O)NC(=O)C(C)(C)NC(=O)[C@H]([C@@H](C)c3c[nH]c4cccc(F)c34)NC(=O)[C@@H]3C[C@H](F)CN3C(=O)CNC(=O)[C@H](Cc3ccc(C(=O)O)cc3)NC(=O)[C@H](Cc3ccncc3)NC2=O)cc1
B10: SEQ ID NO: 106 (peptide)
peptide: cyclo([Phe(4-(cis-4-COOH-cHex))][Ala(1-bicyclo(1.1.1)pentyl)][Phe(4-COOH)]G[Pro(cis-4-F)][Trp(βS-Me,4-F)][Aib]SW[Aib]SQ[Dab]G[dPro(4R-Bzl(4-F))])
SMILES: C[C@@H](c1c[nH]c2cccc(F)c12)[C@@H]1NC(=O)[C@@H]2C[C@H](F)CN2C(=O)CNC(=O)[C@H](Cc2ccc(C(=O)O)cc2)NC(=O)[C@H](CC23CC(C2)C3)NC(=O)[C@H](Cc2ccc([C@H]3CC[C@@H](C(=O)O)CC3)cc2)NC(=O)[C@H]2C[C@@H](Cc3ccc(F)cc3)CN2C(=O)CNC(=O)[C@H](CCN)NC(=O)[C@H](CCC(N)=O)NC(=O)[C@H](CO)NC(=O)C(C)(C)NC(=O)[C@H](Cc2c[nH]c3ccccc23)NC(=O)[C@H](CO)NC(=O)C(C)(C)NC1=O
B11: SEQ ID NO: 105 (peptide)
peptide: cyclo([Phe(4-(cis-4-COOH-cHex))][Ala(1-bicyclo(1.1.1)pentyl)][Phe(4-COOH)]G[Pro(cis-4-F)][Trp(βS-Me,4-F)][Aib]EW[Api]SQ[Dab]G[dPro(4R-Bzl(4-F))])
SMILES: C[C@@H](c1c[nH]c2cccc(F)c12)[C@@H]1NC(=O)[C@@H]2C[C@H](F)CN2C(=O)CNC(=O)[C@H](Cc2ccc(C(=O)O)cc2)NC(=O)[C@H](CC23CC(C2)C3)NC(=O)[C@H](Cc2ccc([C@H]3CC[C@@H](C(=O)O)CC3)cc2)NC(=O)[C@H]2C[C@@H](Cc3ccc(F)cc3)CN2C(=O)CNC(=O)[C@H](CCN)NC(=O)[C@H](CCC(N)=O)NC(=O)[C@H](CO)NC(=O)C2(CCNCC2)NC(=O)[C@H](Cc2c[nH]c3ccccc23)NC(=O)[C@H](CCC(=O)O)NC(=O)C(C)(C)NC1=O

The target of this assay is Recombinant human IL-1β (BioLegend 579404) (human, UniProt P01584 117-269). Nature of the assay: cell-based or functional assay.
As to B1, the “MRC5 IC50” value turned out to be 38 pM.
B2: the “MRC5 IC50” value came out at 21 pM.
Regarding B3, the “MRC5 IC50” value was determined as 24 pM.
With B4, the “MRC5 IC50” value worked out at 36 pM.
The figure for B5 is 63 pM; for B6 it is 85 pM; for B7 it is 60 pM.
Consider B8, for which the “MRC5 IC50” value is 19 pM.
As to B9, the “MRC5 IC50” value worked out at 45 pM.
The figure for B10 is 31 pM.
As for B11, the “MRC5 IC50” value came out at 83 pM.
